These results are taken from publication PMC10127259.

Details in all cases: remark: other sources report otherwise
The target of experiment [1] is T1, Nt17 peptide (the first 17 amino acids at the N-terminus of huntingtin), P42858.
T1 chain: MATLEKLMKAFESLKSF
Kind of experiment: native MS; cVSSI-MS, positive ion mode; Nt17 10 uM incubated with POPG vesicles with 20% exogenous cholesterol, 10:1 lipid:peptide, 24 h at 37 °C, 10 mM ammonium acetate; peak areas normalised to [M + 2H]2+.

The target of experiment [2] is T1, Nt17 peptide (the first 17 amino acids …). Kind of experiment: native MS; cVSSI-MS, positive ion mode; Nt17 10 uM incubated with DOPC vesicles with 20% exogenous cholesterol, 10:1 lipid:peptide, 24 h at 37 °C, 10 mM ammonium acetate; peak areas normalised to [M + 2H]2+.
Experiment [3] has the same target. Description: native MS; cVSSI-MS, positive ion mode; Nt17 10 uM incubated with pure DOPC vesicles (0% cholesterol), 10:1 lipid:peptide, 24 h at 37 °C, 10 mM ammonium acetate; peak areas normalised to [M + 2H]2+.
Experiment [4] has the same target. Kind of experiment: native MS; cVSSI-MS, positive ion mode; Nt17 10 uM incubated with POPC vesicles with 20% exogenous cholesterol, 10:1 lipid:peptide, 24 h at 37 °C, 10 mM ammonium acetate; peak areas normalised to [M + 2H]2+.
Experiment [5] has the same target. Kind of experiment: native MS; cVSSI-MS, positive ion mode; Nt17 10 uM incubated with pure POPC vesicles (0% cholesterol), 10:1 lipid:peptide, 24 h at 37 °C, 10 mM ammonium acetate; peak areas normalised to [M + 2H]2+.

The stoichiometry N is the number of molecules, sites or subunits per partner or assembly. For MATLEKLMKAFESLKSF [Nt17 peptide (the first 17 amino acids at the N-terminus of huntingtin), P42858 1-17], in experiment [1], the relative peak area of [2M + 2L] (2 Nt17 + 2 POPG), against [M + 2H]2+ was 23%; the relative peak area of [2M + 3L] (2 Nt17 + 3 POPG), against [M + 2H]2+ is 0.6%; the stoichiometry N turned out to be 2. Further, in experiment [2], the relative peak area of [2M + 3L] (2 Nt17 + 3 DOPC), against [M + 2H]2+ came to 0.15%; the total relative peak area of complexes with four peptides, against [M + 2H]2+ came out at 1.2%; the total relative peak area of complexes with three peptides, against [M + 2H]2+ was found to be 4%; the total relative peak area of complexes with two peptides, against [M + 2H]2+ worked out at 8%. Moreover, in experiment [3], the relative peak area of [2M + 3L] (2 Nt17 + 3 DOPC), against [M + 2H]2+ was found to be 0.45%; the relative peak area of [3M + 1L] (3 Nt17 + 1 DOPC), against [M + 2H]2+ worked out at 3.3%; the relative peak area of [4M + 1L] (4 Nt17 + 1 DOPC), against [M + 2H]2+ turned out to be 0.98%; the total relative peak area of complexes with three peptides, against [M + 2H]2+ stood at 3.6%. Moreover, the total relative peak area of complexes with two peptides, against [M + 2H]2+ in experiment [3] is 10.3%. Further, in experiment [4], the relative integrated peak area of [2M + 2L] (2 Nt17 + 2 POPC), against [M + 2H]2+ was found to be 0.11%; the relative integrated peak area of [3M + 1L] (3 Nt17 + 1 POPC), against [M + 2H]2+ amounted to 1.1%; the total relative integrated peak area of complexes with two peptides, against [M + 2H]2+ came out at 2.7%. Moreover, in experiment [5], the relative integrated peak area of [2M + 1L] (2 Nt17 + 1 POPC), against [M + 2H]2+ amounted to 1.3% and the relative integrated peak area of [3M + 1L] (3 Nt17 + 1 POPC), against [M + 2H]2+ was found to be 0.8%.
